Assay results taken from patent US20100087625.
Changes are numbered by the printed parent chain.

Columns and labels:
[1] = system: T1, S1S2proBMP-2 (human proBMP-2 with S1 site REKR replaced by TNGIEGRALDP and S2 site RISR mutated to AISR; construct IND2372)
T1 sequence: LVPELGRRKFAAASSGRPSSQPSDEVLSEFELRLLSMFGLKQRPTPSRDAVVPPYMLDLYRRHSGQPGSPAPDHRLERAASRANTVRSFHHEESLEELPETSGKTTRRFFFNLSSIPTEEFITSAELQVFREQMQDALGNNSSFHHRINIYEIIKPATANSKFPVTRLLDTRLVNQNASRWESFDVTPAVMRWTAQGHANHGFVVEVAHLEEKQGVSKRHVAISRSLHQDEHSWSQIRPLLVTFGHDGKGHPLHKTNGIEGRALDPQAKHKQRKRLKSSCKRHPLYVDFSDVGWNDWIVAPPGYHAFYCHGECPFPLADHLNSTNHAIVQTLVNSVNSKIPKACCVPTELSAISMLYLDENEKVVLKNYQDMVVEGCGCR

[2] = system: T2, S1proBMP-2 (human proBMP-2 with the S1 furin cleavage site REKR replaced by TNGIEGRALDP; constructs IND2340 and IND2341)
T2 sequence: T1 sequence with A222R

[3] = system: T3, recombinant human proBMP-2 (wild type, produced by CHO-BMP-2 cells)
T3 sequence: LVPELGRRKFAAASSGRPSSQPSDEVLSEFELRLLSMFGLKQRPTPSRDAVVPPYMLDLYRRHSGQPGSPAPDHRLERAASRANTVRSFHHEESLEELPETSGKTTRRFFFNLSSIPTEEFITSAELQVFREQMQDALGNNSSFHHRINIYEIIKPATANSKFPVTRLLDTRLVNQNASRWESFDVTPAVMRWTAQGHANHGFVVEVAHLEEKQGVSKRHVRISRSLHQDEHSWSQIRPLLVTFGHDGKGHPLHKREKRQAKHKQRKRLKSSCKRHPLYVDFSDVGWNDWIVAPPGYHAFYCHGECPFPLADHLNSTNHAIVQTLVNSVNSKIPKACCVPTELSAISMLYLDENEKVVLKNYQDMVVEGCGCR

Substance	Western blot after digestion with Factor Xa [1]	Western blot after digestion with Factor Xa [2]	Western blot after in vitro digestion with furin [3]
Factor Xa (Restriction Protease Factor Xa Cleavage and Removal Kit, Roche Applied Science Cat #1 644 777)	Cleavage of mutant BMPs S1 proBMP and S1 S2proBMP-2 by Factor Xa produced a mature BMP-2 that remained a dimer under non-reducing conditions with an apparent molecular weight of 30-32 KD	Cleavage of mutant BMPs S1 proBMP and S1 S2proBMP-2 by Factor Xa produced a mature BMP-2 that remained a dimer under non-reducing conditions with an apparent molecular weight of 30-32 KD	
furin (Sigma)			the purified CHO proBMP-2 monomers migrated at approximately 55 kDa were cleaved after 1 hr incubation with furin
